The values that follow come from publication PMC6328864, “Regulation of Myosin-5b by Rab11a and the Rab11 family interacting protein 2” (Bioscience Reports, 2018).

B1: Flag-FIP2-RBD (domain or fragment, human, UniProt Q7L804 452-512, looked up)
chain: TYEEVLQELVKHKELLRRKDTHIRELEDYIDNLLVRVMEETPSILRVPYEPSRKAGKFSNS
notes: not shown: Flag, N-terminal, kept
B2: GST–Rab11a (natural protein, human, UniProt P62491 1-216, looked up)
chain: MGTRDDEYDYLFKVVLIGDSGVGKSNLLSRFTRNEFNLESKSTIGVEFATRSIQVDGKTIKAQIWDTAGQERYRAITSAYYRGAVGALLVYDIAKHLTYENVERWLKELRDHADSNIVIMLVGNKSDLRHLRAVPTDEARAFAEKNGLSFIETSALDSTNVEAAFQTILTEIYRIVSQKQMSDRRENDMSPSNNVVPIHVPPTTENKPKVQCCQNI
notes: Rab11a, human (cDNA by RT-PCR from human brain cDNA); GTPγS also in the pull-down buffers; source: E. coli, purified (GSH-Sepharose); not shown: GST, N-terminal, kept

The assay “GST–Rab11a” concerns the target B2. Nature of the assay: pull-down; GSH-Sepharose; 0.5 μM GST–Rab11a (bait), 0–1.0 μM Flag-Myo5b-GTD, 0–1.0 μM Flag-FIP2-RBD; Buffer-B with 100 mM NaCl and 3 μM GTPγS; 4°C, 1 h; eluted with 20 mM GSH; Western blot (anti-Flag, anti-GST). The note with it: both partners purified. In general terms: Immunoblotting shows a protein as a band on a membrane.
The target in assay [1] is T1, Flag-FIP2 (full-length Rab11 family interacting protein 2) (human, UniProt Q7L804 1-512).
T1 construct: not shown: Flag, N-terminal, kept
In words: pull-down; GSH-Sepharose; 0.5 μM GST–Rab11a (bait), 0–0.5 μM Flag-Myo5b-Tail, 0–1.0 μM Flag-FIP2 or Flag-FIP2-RBD; Buffer-B with 100 mM NaCl and 3 μM GTPγS; 4°C, 1 h; eluted with 20 mM GSH; Coomassie staining. The settings on record: both partners purified.

Another assay deals with T2, Flag-Myo5b-GTD (Rattus norvegicus (Rat), UniProt P70569).
T2 chain: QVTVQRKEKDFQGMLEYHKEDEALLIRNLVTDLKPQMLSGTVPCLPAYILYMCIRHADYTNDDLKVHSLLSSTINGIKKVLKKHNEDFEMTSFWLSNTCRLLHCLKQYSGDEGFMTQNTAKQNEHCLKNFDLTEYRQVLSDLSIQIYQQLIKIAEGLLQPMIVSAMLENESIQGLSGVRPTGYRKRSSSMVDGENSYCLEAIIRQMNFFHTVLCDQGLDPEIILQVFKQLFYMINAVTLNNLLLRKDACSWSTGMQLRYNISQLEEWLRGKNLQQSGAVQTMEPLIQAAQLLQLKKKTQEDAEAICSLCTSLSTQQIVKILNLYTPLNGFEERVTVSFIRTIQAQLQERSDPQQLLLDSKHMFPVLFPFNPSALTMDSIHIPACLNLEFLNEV
In words: GST pull-down / anti-Flag pull-down; Rab11a loaded with GTPγS/Mg2+; binding competed away by FIP2-RBD.

With B1, in the assay with GST–Rab11a, the binding result is “binds”.

For the molecule B2, the binding result (in assay [1]; with Flag-Myo5b-GTD) was “binds” throughout.
